# B1: MamK from Magnetospirillum gryphiswaldense MSR-1, C-terminal poly-histidine-tagged (natural protein, UniProt Q6NE59 1-360, looked up)
# chain: MWIDLLARERSDKMSEGEGQAKNRLFLGIDLGTSHTAVMTSRGKKFLLKSVVGYPKDVIGLKLLGRPYVVGDEAFEMRSYLDLRYPLQDGVLSEISDRDIEVARHLLTHVVKSAEPGANDEICAVIGVPARASGANKALLLKMAQEVVHTALVVSEPFMVGYGLDKLNNTIIVDIGAGTTDICALKGTVPGPEDQVTLTKAGNYLDERLQNAILERHPELQMNTNVACAVKEQFSFVGARGEAATFEFRAAGKPVRCDVTESVKIACEALMPDIIESIEILLRSFQPEYQATVLQNIVFAGGGSRIRGLAAYVKDKLRPFGNADVTCVKDPTFDGCRGALRLAEELPPQYWCQLGDVSGQ
# notes: MamK, actin-like protein of M. gryphiswaldense MSR-1; mamK gene (1083 bp) cut from a MamK-pGEM construct with SalI/EcoRI and sub-cloned into pET29b; purified as a 42 KDa protein; No cleavage of the tag is described; also called His-MamK; His-tagged MamK
# Target: the molecule itself
# Experiment: small angle scattering + dynamic light scattering (PDI); results not shown; conditions not given
protein,measurement,value
B1,stoichiometry N,2 to 6

# Source: paper PMC3346761, “Insight into the Assembly Properties and Functional Organisation of the Magnetotactic Bacterial Actin-like Homolog, MamK” (PLoS ONE, 2012)
